Laboratory results taken from the supplement of paper PMC9170038.

Key:
MS2 coat protein [1] = assay: apparent KD of MS2 coat protein, switch OFF state (with FMN for OFF switches, without FMN for ON switches); designed switch direction (-1 OFF switch, 1 ON switch): -1; higher = weaker reporter binding; settings: FMN input: 0 or 200 uM; Eterna round: R93 (includes R88 designs)
In short: (§1)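 Designed RNA switches, transcribed on-chip from Illumina sequencing clusters, were titrated with SNAP-549-labelled MS2 coat protein from 0.7 or 1.5 nM to 3 µM in twofold steps. The solution was 100 mM Tris-HCl pH 7.5, 80 mM KCl, 4 mM MgCl2, with constant ligand or without it. Apparent KD is the median over each design's normalised cluster binding-curve fits.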

MS2 coat protein [2] = assay: apparent KD of MS2 coat protein, switch ON state; designed switch direction (-1 OFF switch, 1 ON switch): -1; higher = weaker reporter binding; settings: FMN input: 0 or 200 uM; Eterna round: R93 (includes R88 designs)
In short: as §1

| Sequence | apparent KD of MS2 coat protein (MS2 coat protein [1]) [nM] | apparent KD of MS2 coat protein (MS2 coat protein [2]) [nM] |
| --- | --- | --- |
| AGCAAGUUAGGAUAUGCGAAGUCAGGACACACACUGACAAAGCAGAAGGAACAUGAGGAUCACCCAUGUAAGCA [Mat - Exaclusion 4 - Eli mod - D64] | 20.8 | 29.9 |
| AAAAAAAGAGGAUAUACGUACAUGUCAAAAGACGUGAAGGGACAUGAGGAUCACCCAUGUAGAAGGUUUAAAAA [JL Wide Open 30] | 16.3 | 35.5 |
| AAGAACGCAGGAUAUACAUGAGGAUCACCCAUGUAAAAGAAAGAAGGGAAAGAGAAAAGUAGAAGGGCGAAGAA [Usermaatre-setepenamun Iuput I] | 41.8 | 35.3 |
| AAAAAACAUGAGGAUCACCCAUGUGAGGAUAUGCUAUGGAAAUAAAAAAUAAAACAUAGCAGAAGGCACACCAA [Mat - Exclusion 1 - Eli mod - D44] | 42.9 | 31 |
| AAAAGGAUAGGAUAUACAUGAGGAUCACCCAUGUGAAAAAAUAAAAAAAAAAAAAAAAGUAGAAGGGUCAAAAA [LROPPY Exclusion 3 - v05_deltaG=3.6] | 53.7 | 40.2 |
| AAAUAGACAGGAUAUGCAUGAAAAUUAAAAAAAAAAAAAAAACAUGAGGAUCACCCAUGUAGAAGGGUCAAAAA [Exclusion 2 - Omei 1] | 75.8 | 66.6 |
| AAGAAACAUGAGGAUCACCCAUGUCAGGAUAUCUAAAAGAAAAGAAAAGAAAGAAGAAAGAGAAGGGACAAAGG [Neferirkare] | 61.3 | 39.2 |
| CGUUGGCGAGGAUAUACAUGAGGAUCACCCAUGUGAGAGAAAAAAGUGAGAAAGAAAAGUAGAAGGCGCUGACA [salish99-ex3-11] | 264 | 45.3 |
| GAUCCACAUGAGGAUCACCCAUGUGAGGAUAUCGUGCAGAAAAAAAAAAAAAACUGCACGAGAAGGCACAUGGG | 13 | 19.4 |
| AGCUAGUCAGGAUAUACAAAAAUGACAGAAGACGUAAGGGAACAUGAGGAUCACCCAUGUAGAAGGGACUAGCA [Diamond 43] | 184 | 61.5 |
| AACAAACAUGAGGAUCACCCAUGUGAGGAUAUCGAAACAACAAACAACAAACAACAAACGAGAAGGCGCAACAA [e1-2] | 17.3 | 18.8 |
| GAUAGUGAAGGAUAUACUGGAGGAGUGCGAUAGAAGCAAGAACAUGAGGAUCACCCAUGUAGAAGGUCAGAAGU [JR_Exc002_Sub1224] | 23.2 | 25.5 |
| AAUAGUGAAGGAUAUACAGGAGAAGUACGAUAAAAGAAAGAACAUGAGGAUCACCCAUGUAGAAGGUCAGAAGU [JR_Exc002_Sub1228] | 26.3 | 33.6 |
| GAAAAGUGAGGAUAUGUCAAAAGUCACAAAAGUGACAAAAGACAGAAGGCACAUGAGGAUCACCCAUGUGAAAG [Mat - Exaclusion 4 - Eli mod - D54] | 28.4 | 24.7 |
| AACAGGUCAGGAUAUGUGGAAAAAAUAAAAAAAAUAAAAACACAGAAGGGACAUGAGGAUCACCCAUGUCAACA [May 24] | 25.3 | 30 |
| AAAAAACAUGAGGAUCACCCAUGUGAGGAUAUGAUGCGAAUAAAGAAAGAAGAAAGCAUCAGAAGGCACAUAUG [Mod of Disincluded 3 (little more stable fmn state)] | 234 | 39.5 |
| AAGUUAUUAGGAUAUACUUGUGCGAUCCAUACGUUGAUAUUACAUGAGGAUCACCCAUGUAGAAGGAAUAAAAA [JR_Exc002_Sub414] | 45.2 | 48.2 |
| AAGAAGGUAGGAUAUACAAAAUAAAAGAAAAGAAAGAAAGAACAUGAGGAUCACCCAUGUAGAAGGACCAAGAA [Khutawyre Wegaf] | 17.7 | 34.3 |
